# According to patent publication US20210346432A1 (Memorial Sloan Kettering, published 2021):
# T1: A647 conjugated BCMA-Fc fusion protein (human, UniProt Q02223 1-54, A647 conjugated (site not stated))
# T1 construct: Staining reagent for CAR on T cells; not shown: Fc part
# T1 sequence: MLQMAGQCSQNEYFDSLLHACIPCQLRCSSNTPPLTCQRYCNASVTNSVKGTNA
# T2: mouse BCMA (mouse, UniProt O88472 1-49, limits assumed)
# T2 chain (looked up): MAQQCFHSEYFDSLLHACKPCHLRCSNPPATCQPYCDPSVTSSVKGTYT
# Target: T1, A647 conjugated BCMA-Fc fusion protein
# Assay: flow cytometry, A647 conjugated BCMA-Fc on CAR-transduced human T cells
# Experimental: Human T cells (unselected (CD4 and CD8) human T cells from a healthy donor) were transduced with retrovirus in order to express each of these BCMA-targeted CARs such that the T cells expressed these BCMA-targeted 28z CARs. The cell surface expression of BCMA-targeted CARs on human T cells was determined via binding A647 conjugated BCMA-Fc fusion protein.
row,binding result,Binder
1,binds,"BCMA-targeted 28z CAR24 (other, Chimeric antigen receptor on transduced human T cells; leader left out; also called BCMA-specific 28z CAR24) SYELTQPPSASGTPGQRVTMSCSGTSSNIGSHSVNWYQQLPGTAPKLLIYTNNQRPSGVPDRFSGSKSGTSASLAISGLQSEDEADYYCAAWDGSLNGLVFGGGTKLTVLGSRGGGGSGGGGSGGGGSLEMAEVQLVQSGAEVKKPGESLKISCKGSGYSFTSYWIGWVRQMPGKGLEWMGIIYPGDSDTRYSPSFQGHVTISADKSISTAYLQWSSLKASDTAMYYCARYSGSFDNWGQGTLVTVSSIEVMYPPPYLDNEKSNGTIIHVKGKHLCPSPLFPGPSKPFWVLVVVGGVLACYSLLVTVAFIIFWVRSKRSRLLHSDYMNMTPRRPGPTRKHYQPYAPPRDFAAYRSRVKFSRSADAPAYQQGQNQLYNELNLGRREEYDVLDKRRGRDPEMGGKPRRKNPQEGLYNELQKDKMAEAYSEIGMKGERRRGKGHDGLYQGLSTATKDTYDALHMQALPPR"

# Target: T2, mouse BCMA
# Assay: ELISA (OD450), single point, coats human BCMA, mouse BCMA, blank
row,Binder,binding result
1,"ET140-172 (scFv, also called ET140-172 scFv; ET140-22 scFv) scFv: QSVVTQPPSVSGAPGQRVTISCSGSSSNIGARYDVQWYQQLPGTAPKLLIFGNNNRPSGVPDRFSGSKSGTSASLAITGLQAEDEADYYCQSYDSSLSASVFGGGTKLTVLGSRGGGGSGGGGSGGGGSLEMAEVQLVQSGAEVKKPGASVKVSCKASGYTFTSYYMHWVRQAPGQGLEWMGIINPSGGSTSYAQKFQGRVTMTRDTSTSTVYMELSSLRSEDTAVYYCARSQWGGVLDYWGQGTLVTVSS",no binding
2,"ET140-201 (scFv, also called ET140-201 scFv; ET140-51 scFv) scFv: QPVLTQPPSASASLGASVTLTCTLSSGYSNYKVDWYQQRPGKGPRFVMRVGTGGIVGSKGDGIPDRFSVLGSGLNRYLTIKNIQEEDEGDYHCGADHGSGSNFVYVFGTGTKVTVLGSRGGGGSGGGGSGGGGSLEMAQVQLQESGPGLVKPSGTLSLTCGVSGGSISNSNWWSWVRQPPGKGLEWIGEIYHSGSTKYNPSLRSRVTISVDKSKNQFSLKLSSVTAADTAVYYCARRDNWKTPTTKIDGFDIWGQGTMVTVSS",no binding
3,"ET140-174 (scFv, also called ET140-174 scFv; ET140-24 scFv) scFv: SYELTQPPSASGTPGQRVTMSCSGTSSNIGSHSVNWYQQLPGTAPKLLIYTNNQRPSGVPDRFSGSKSGTSASLAISGLQSEDEADYYCAAWDGSLNGLVFGGGTKLTVLGSRGGGGSGGGGSGGGGSLEMAEVQLVQSGAEVKKPGESLKISCKGSGYSFTSYWIGWVRQMPGKGLEWMGIIYPGDSDTRYSPSFQGHVTISADKSISTAYLQWSSLKASDTAMYYCARYSGSFDNWGQGTLVTVSS",no binding

# Now from value to binder:
row,binding result,Binder
1,no binding,"ET140-196 (scFv, also called ET140-196 scFv; ET140-46 scFv) scFv: QAVLTQPPSASGTPGQRVTISCSGSSSNIGSYTVSWYQQLPGTAPKFLIYSNNQRPSGVPDRFSGSKSGTSASLAISGLQSEDEADYYCAAWDDSLNGYVFGTGTKVTVLGSRGGGGSGGGGSGGGGSLEMAEVQLVQSGAEVKKPGESLKISCKGSGYDFTTYWIGWVRQMPGKGLEWMGIIYPGDSDTRYSPSVRGRVTISADKSINTAYLQWSSLEASDTAMYYCARMWTFSQDGWGQGTLVTVSS"
2,no binding,"ET140-188 (scFv, also called ET140-188 scFv; ET140-38 scFv) scFv: SYVLTQPPSASGTPGQRVTISCSGSSSNIGSNTVNWYQQVPGTAPKLLIYSNNQRPSGVPDRFSGSKSGASASLAISWLQSEDEADYYCAAWDDSLNGWVFGGGTKLTVLGSRGGGGSGGGGSGGGGSLEMAQMQLVQSGAEVKKPGASVKVSCKASGYTFTGYYVHWLRQAPGQGLEWMGWINPNSGGTNNAQEFQGRITMTRDTSINTAYMELSRLRSDDTAVYYCARSQWGGTYDYWGQGTLVTVSS"
3,no binding,"ET140-207 (scFv, also called ET140-207 scFv; ET140-57 scFv) scFv: QPVLTQPPSASASLGASVTLTCTLSSGYSNYKVDWYQQRPGKGPRFLMRVDTGGIVGSKGDGIPDRFSVSGSGLNRYLTIKNIQEEDESDYHCGADHGSGSNFVWVFGGGTKLTVLGSRGGGGSGGGGSGGGGSLEMAQVQLVQSGAEVKKPGSSVKVSCKASGGTFSSYAISWVRQAPGQGLEWMGGIIPIFSTANYAQKFQGRVTMTTDTSTSTAYMELRSLRSDDTAVYYCARQPWTWYSPYDQWGQGTLVTVSS"
4,no binding,"ET140-204 (scFv, also called ET140-204 scFv; ET140-54 scFv) scFv: QSALTQPASVSASPGQSIAISCTGTSSDVGWYQQHPGKAPKLMIYEDSKRPSGVSNRFSGSKSGNTASLTISGLQAEDEADYYCSSNTRSSTLVFGGGTKLTVLGSRGGGGSGGGGSGGGGSLEMAEVQLVQSGAEMKKPGASLKLSCKASGYTFIDYYVYWMRQAPGQGLESMGWINPNSGGTNYAQKFQGRVTMTRDTSISTAYMELSRLRSDDTAMYYCARSQRDGYMDYWGQGTLVTVSS"
